In assay [1] the target is CD45RA (human) (UniProt P08575). Kind of assay: FACS on Jurkat B2.7 cells; background subtracted, rounded to nearest ten.
Assay [2] has the same target. Kind of assay: FACS on Jurkat D1.1 cells; background subtracted, rounded to nearest ten.
Assay [3] addresses CD7 (human) (UniProt P09564). Kind of assay: FACS on Jurkat B2.7 cells; background subtracted, rounded to nearest ten.
Assay [4] has as its target CD7 (human) (UniProt P09564). The assay is described as follows: FACS on Jurkat D1.1 cells; background subtracted, rounded to nearest ten.
The target of assay [5] is CD16 (human). Kind of assay: FACS on Jurkat B2.7 cells; background subtracted, rounded to nearest ten.
Sequence of CD16 (human) (P06734 whole entry): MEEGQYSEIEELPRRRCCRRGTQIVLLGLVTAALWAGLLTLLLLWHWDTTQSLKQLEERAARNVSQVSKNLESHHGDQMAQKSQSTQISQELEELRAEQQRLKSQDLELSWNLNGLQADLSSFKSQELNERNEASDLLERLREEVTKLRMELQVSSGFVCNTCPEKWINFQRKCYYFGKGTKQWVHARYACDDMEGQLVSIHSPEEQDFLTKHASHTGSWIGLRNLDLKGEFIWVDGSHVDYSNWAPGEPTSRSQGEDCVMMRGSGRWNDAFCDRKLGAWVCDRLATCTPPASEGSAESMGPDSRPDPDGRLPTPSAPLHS
For assay [6], the target named is CD16 (human). The assay is described as follows: FACS on Jurkat D1.1 cells; background subtracted, rounded to nearest ten.
The target in assay [7] is CD29 (human) (UniProt P05556). Kind of assay: FACS on Jurkat B2.7 cells; background subtracted, rounded to nearest ten.
In assay [8] the target is CD29 (human) (UniProt P05556). Kind of assay: FACS on Jurkat D1.1 cells; background subtracted, rounded to nearest ten.
The target of assay [9] is TCRα/β (human). Kind of assay: FACS on Jurkat B2.7 cells; background subtracted, rounded to nearest ten.
Assay [10] concerns the target TCRα/β (human). The assay is described as follows: FACS on Jurkat D1.1 cells; background subtracted, rounded to nearest ten.
For assay [11], the target named is CD5 (human) (UniProt P06127). Kind of assay: FACS on Jurkat B2.7 cells; background subtracted, rounded to nearest ten.
Sequence of CD5 (human) (P06127 25-495): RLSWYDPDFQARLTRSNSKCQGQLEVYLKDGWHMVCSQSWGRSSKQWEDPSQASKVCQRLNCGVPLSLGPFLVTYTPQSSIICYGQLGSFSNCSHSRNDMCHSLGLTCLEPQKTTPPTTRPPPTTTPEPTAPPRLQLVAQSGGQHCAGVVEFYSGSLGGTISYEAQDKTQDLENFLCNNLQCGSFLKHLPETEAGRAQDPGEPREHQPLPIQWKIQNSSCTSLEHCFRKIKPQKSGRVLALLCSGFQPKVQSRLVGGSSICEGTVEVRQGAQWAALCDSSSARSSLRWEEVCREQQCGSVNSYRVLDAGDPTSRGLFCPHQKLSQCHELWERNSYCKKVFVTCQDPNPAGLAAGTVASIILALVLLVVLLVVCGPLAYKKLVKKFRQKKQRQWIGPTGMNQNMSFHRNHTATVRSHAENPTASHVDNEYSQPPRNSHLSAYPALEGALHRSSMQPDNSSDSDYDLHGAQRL
Assay [12] deals with CD5 (human) (UniProt P06127). Kind of assay: FACS on Jurkat D1.1 cells; background subtracted, rounded to nearest ten.
For assay [13], the target named is CD3 (human) (UniProt P07766). The assay is described as follows: FACS on Jurkat B2.7 cells; background subtracted, rounded to nearest ten.
Sequence of CD3 (human) (P07766 23-207): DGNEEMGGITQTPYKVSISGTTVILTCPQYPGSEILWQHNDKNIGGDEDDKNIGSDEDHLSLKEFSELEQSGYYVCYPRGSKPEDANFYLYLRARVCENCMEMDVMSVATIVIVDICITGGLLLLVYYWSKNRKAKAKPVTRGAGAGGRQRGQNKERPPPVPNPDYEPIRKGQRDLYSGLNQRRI
Assay [14] addresses CD3 (human) (UniProt P07766). Kind of assay: FACS on Jurkat D1.1 cells; background subtracted, rounded to nearest ten.
The target in assay [15] is CD4 (human) (UniProt P01730). The assay is described as follows: FACS on Jurkat B2.7 cells; background subtracted, rounded to nearest ten.
The target in assay [16] is CD1a (human) (UniProt P06126). The description is as above.
Sequence of CD1a (human) (P06126 17-327): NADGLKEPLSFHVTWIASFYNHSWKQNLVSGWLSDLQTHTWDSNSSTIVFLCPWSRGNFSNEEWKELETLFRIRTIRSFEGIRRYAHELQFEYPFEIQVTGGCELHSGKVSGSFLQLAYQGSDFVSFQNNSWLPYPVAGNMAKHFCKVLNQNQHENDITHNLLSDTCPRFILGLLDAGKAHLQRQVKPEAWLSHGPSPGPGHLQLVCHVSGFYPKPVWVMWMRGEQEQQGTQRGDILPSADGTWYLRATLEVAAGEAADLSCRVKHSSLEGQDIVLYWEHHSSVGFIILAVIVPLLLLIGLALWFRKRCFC
Assay [17] deals with CD1a (human) (UniProt P06126). The assay is described as follows: FACS on Jurkat D1.1 cells; background subtracted, rounded to nearest ten.
The target in assay [18] is CD18 (human) (UniProt P05107). Kind of assay: FACS on Jurkat B2.7 cells; background subtracted, rounded to nearest ten.
Sequence of CD18 (human) (P05107 23-769): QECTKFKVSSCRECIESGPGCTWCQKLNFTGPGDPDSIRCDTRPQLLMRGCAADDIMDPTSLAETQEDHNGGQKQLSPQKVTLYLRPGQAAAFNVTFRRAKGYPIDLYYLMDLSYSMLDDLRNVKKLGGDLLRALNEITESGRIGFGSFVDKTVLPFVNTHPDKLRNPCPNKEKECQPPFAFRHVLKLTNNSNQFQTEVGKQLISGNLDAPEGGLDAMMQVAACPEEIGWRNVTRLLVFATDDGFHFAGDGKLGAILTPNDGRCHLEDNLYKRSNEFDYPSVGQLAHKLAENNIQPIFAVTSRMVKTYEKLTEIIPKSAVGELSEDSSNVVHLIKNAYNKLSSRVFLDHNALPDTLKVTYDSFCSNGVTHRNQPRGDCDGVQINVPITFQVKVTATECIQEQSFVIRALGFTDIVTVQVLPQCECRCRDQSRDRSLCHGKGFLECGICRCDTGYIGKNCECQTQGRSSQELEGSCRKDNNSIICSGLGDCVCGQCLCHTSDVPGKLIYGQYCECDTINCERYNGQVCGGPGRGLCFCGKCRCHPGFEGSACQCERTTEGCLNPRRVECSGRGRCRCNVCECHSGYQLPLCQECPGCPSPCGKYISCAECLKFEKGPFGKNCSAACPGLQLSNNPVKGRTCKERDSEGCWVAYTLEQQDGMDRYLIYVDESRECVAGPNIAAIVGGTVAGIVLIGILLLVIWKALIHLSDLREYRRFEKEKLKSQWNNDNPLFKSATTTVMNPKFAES
Assay [19] concerns the target CD18 (human) (UniProt P05107). Kind of assay: FACS on Jurkat D1.1 cells; background subtracted, rounded to nearest ten.
The target of assay [20] is CD11a (human) (UniProt P20701). Kind of assay: FACS on Jurkat B2.7 cells; background subtracted, rounded to nearest ten.
Sequence of CD11a (human) (P20701 26-1170): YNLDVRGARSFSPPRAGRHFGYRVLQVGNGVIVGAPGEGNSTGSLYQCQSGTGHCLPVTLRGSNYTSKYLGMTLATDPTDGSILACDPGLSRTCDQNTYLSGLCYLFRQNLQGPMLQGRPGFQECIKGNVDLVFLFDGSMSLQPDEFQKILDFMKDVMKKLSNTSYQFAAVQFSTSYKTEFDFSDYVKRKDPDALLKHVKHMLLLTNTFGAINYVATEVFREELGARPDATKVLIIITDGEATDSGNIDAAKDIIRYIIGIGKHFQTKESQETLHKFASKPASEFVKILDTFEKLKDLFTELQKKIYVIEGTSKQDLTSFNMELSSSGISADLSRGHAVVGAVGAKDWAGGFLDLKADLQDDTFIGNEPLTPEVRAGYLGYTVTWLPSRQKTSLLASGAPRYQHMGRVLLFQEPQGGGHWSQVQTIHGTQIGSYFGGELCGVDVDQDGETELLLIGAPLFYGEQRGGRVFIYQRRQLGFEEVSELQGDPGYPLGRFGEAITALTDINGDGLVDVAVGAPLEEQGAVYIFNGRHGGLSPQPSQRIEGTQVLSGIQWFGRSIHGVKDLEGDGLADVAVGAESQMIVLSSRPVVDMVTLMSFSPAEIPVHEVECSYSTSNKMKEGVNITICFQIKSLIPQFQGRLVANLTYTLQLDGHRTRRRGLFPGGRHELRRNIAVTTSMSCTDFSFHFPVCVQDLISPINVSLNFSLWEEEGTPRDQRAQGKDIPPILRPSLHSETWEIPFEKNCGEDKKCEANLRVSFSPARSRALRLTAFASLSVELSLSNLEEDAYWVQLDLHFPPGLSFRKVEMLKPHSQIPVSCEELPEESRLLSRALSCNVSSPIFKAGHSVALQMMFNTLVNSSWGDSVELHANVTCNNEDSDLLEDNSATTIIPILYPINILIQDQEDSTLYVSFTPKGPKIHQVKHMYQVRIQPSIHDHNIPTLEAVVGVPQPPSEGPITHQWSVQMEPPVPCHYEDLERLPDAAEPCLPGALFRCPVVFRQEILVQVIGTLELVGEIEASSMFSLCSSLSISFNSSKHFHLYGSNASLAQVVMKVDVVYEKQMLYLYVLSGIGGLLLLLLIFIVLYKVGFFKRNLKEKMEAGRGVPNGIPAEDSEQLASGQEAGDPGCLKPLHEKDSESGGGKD
For assay [21], the target named is CD11a (human) (UniProt P20701). Kind of assay: FACS on Jurkat D1.1 cells; background subtracted, rounded to nearest ten.
For assay [22], the target named is CD58 (human) (UniProt P19256). Kind of assay: FACS on Jurkat B2.7 cells; background subtracted, rounded to nearest ten.
Sequence of CD58 (human) (P19256 29-250): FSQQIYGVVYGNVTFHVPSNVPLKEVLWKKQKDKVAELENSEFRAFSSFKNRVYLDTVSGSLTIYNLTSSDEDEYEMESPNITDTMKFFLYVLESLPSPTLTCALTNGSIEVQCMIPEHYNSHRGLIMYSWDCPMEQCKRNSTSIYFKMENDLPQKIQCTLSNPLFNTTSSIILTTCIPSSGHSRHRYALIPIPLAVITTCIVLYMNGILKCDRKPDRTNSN
Assay [23] addresses CD58 (human) (UniProt P19256). The assay is described as follows: FACS on Jurkat D1.1 cells; background subtracted, rounded to nearest ten.
Assay [24] deals with CD43RO (so in the source); T200. LCA) (human) (UniProt P08575). Kind of assay: FACS on Jurkat B2.7 cells; background subtracted, rounded to nearest ten.
Sequence of CD43RO (so in the source); T200. LCA) (human) (P08575 26-1306): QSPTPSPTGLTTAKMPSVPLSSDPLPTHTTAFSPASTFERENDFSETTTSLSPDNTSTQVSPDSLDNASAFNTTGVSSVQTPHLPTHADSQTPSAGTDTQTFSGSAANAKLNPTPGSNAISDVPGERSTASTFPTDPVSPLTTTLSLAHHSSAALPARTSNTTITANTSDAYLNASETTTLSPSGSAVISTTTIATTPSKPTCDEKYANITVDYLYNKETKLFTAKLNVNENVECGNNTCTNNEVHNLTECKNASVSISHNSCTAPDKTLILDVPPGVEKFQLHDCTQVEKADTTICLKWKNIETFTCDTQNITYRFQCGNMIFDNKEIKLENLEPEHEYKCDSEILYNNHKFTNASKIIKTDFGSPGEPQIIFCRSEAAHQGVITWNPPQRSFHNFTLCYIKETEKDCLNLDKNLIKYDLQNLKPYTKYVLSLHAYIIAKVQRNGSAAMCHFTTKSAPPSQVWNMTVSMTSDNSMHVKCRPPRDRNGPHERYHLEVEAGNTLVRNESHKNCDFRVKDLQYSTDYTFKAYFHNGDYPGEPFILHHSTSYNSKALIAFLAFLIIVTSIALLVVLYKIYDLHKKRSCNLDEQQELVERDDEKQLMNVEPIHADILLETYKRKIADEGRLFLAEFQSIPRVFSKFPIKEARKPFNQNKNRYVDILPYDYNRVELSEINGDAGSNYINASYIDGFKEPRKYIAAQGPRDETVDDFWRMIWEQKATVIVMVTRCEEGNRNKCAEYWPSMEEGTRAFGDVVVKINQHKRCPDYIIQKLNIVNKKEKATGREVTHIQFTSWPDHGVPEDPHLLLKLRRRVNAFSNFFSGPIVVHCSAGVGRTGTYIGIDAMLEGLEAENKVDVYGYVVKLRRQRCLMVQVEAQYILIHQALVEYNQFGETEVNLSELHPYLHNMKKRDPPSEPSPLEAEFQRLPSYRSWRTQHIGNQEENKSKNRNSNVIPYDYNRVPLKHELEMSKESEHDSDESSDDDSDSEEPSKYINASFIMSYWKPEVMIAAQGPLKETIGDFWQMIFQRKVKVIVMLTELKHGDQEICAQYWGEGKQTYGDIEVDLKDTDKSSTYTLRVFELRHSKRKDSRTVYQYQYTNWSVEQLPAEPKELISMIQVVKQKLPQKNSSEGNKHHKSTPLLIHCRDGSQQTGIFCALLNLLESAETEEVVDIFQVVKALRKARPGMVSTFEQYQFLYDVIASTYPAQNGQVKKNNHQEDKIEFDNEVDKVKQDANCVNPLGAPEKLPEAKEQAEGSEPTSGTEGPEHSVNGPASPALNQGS
Assay [25] shares this target. Kind of assay: FACS on Jurkat D1.1 cells; background subtracted, rounded to nearest ten.
The target of assay [26] is MHC-classI (human). Kind of assay: FACS on Jurkat B2.7 cells; background subtracted, rounded to nearest ten.
Assay [27] concerns the target MHC-classI (human). Kind of assay: FACS on Jurkat D1.1 cells; background subtracted, rounded to nearest ten.

Sequence of CD7 (human) (P09564 26-240): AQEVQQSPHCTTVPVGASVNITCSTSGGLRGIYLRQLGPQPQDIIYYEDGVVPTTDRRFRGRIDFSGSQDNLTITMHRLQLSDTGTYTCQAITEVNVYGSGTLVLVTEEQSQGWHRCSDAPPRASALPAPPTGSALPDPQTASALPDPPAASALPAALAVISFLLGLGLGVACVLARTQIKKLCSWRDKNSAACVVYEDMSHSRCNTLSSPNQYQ
Sequence of CD45RA (human) (P08575 26-1306): as the sequence (P08575 26-1306) above

For 2H4 (antibody), the Mean Fluorescence Intensity (arbitrary units) in assay [1] stood at 40; in [2], 30.
Turning to 3A1 (anti-CD7) (antibody), the Mean Fluorescence Intensity (arbitrary units) in [3] came out at 190; in assay [4] it was 200.
As to 3G8 (antibody), the Mean Fluorescence Intensity (arbitrary units) in assay [5] and in assay [6] was 20 in each case.
For the substance 4B4 (antibody), the Mean Fluorescence Intensity (arbitrary units) was determined as 110 in assay [7] and 140 in assay [8].
For the substance BMA-031 (antibody), the Mean Fluorescence Intensity (arbitrary units) worked out at 40 in assay [9] and 10 in assay [10].
As to OKT1 (anti-CD5) (antibody), the values for the Mean Fluorescence Intensity (arbitrary units) in [11] and in assay [12] were 90 and 20, respectively.
As to OKT3 (anti-CD3) (antibody), the Mean Fluorescence Intensity (arbitrary units) in assay [13] is 80; in assay [14], 30.
For OKT4 (anti-CD4) (antibody), the Mean Fluorescence Intensity (arbitrary units) in assay [15] was 130.
As to OKT6 (anti-CD1a) (antibody), the Mean Fluorescence Intensity (arbitrary units) in [16] and in [17] was 10 each time.
In the case of “TS1/18.1.2.11.4 (anti-LFA-1β) (antibody)”, the Mean Fluorescence Intensity (arbitrary units) in assay [18] was determined as 80; in assay [19], 30.
For TS1/22.1.13 (anti-LFA-1a) (antibody), the Mean Fluorescence Intensity (arbitrary units) is 100 in assay [20] and 40 in assay [21].
For the substance TS2/9.1.4.3 (anti-LFA-3) (antibody), the figures for the Mean Fluorescence Intensity (arbitrary units) in assay [22] and in assay [23] were 60 and 40, respectively.
For UCHL1 (antibody), the Mean Fluorescence Intensity (arbitrary units) turned out to be 20 in [24] and 10 in assay [25].
In the case of W6/32 (anti-MHC class I) (antibody), the figures for the Mean Fluorescence Intensity (arbitrary units) in [26] and in assay [27] were 70 and 190, respectively.

These data come from patent US7070777.
